According to US20230226096A1 (Orna Therapeutics, Inc., priority 2020, published 2023):
Entries after “also recorded” stand apart in the source; their conditions may differ.

B1: SA5 (nucleic acid)
DNA: AGTACTTGGTATTCCGGTACCTTTGTACACCTATTTACAAACCCTACCCCTTGTAACCTTAGAAGCAATTATTTAACCGCTCACTAGGGGGTGTGCTATCCAAGCACATCAAGAGCAAGCACTTCTGTCTCCCCGGGAGGGGCTAATGGTACGCTGTGCCCACGGCGGAAATGAGCCCTACCGTTAACCGGCAGTCTACTTCGGGAAGCCCAGTAACTACATTGAAACTTTGAGGCGTTACACTCAGCACATAACCCCAATGTGTAGTTCTGGTCGATGAGCCTTGGCATCCCCCACAGGCGACTGTGGCCAAGGCTGCGTTGGCGGCCAGCCTGCGGACCAAAAGTCCGTAGGACGCCTAATTGTGGACATGGTGTGAAGAGCCTACTGAGCTAGACTGTAGTCCTCCGGCCCCTGAATGCGGCTAATCCTAACCCTGGAGCATCCGCGTGCAACCCAGTACGTAGGGTGTCGTAATGCGTAAGTCTGGGATGGAACCGACTACTTTGGGTGTCCGTGTTTCTTGTTTTTCATACTGGGTCGCTTATGGTTACAACTAATTGTTGTAATCATTGGCAGTGCGCGCTGACCACGCGATTATTGATATTTCCATTTGTTGGATACTCCAATAGTGTCAACTCATATACACAACTTTTACCACTGATCAAGATAAAA
B2: PSIV IGR (nucleic acid)
DNA: GCTGACTATGTGATCTTATTAAAATTAGGTTAAATTTCGAGGTTAAAAATAGTTTTAATATTGCTATAGTCTTAGAGGTCTTGTATATTTATACTTACCACACAAGATGGACCGGAGCAGCCCTCCAATATCTAGTGTACCCTCG
modifications: Plautia stali intestine virus
B3: EV A114 (nucleic acid, listed as Enterovirus sp.)
DNA: TGTGCGCCTGTTTTGAAACCCCCTCCCCCAACTCGAAACGTAGAAGTAATGTACACTACTGATCAGTAGCAGGCGTGGCGCACCAGCCATGTCTCGATCAAGCACTTCTGTTTCCCCGGACTGAGTATCAATAGACTGCTCACGCGGTTGAAGGTGAAAACGTCCGTTACCCGGCTAACTACTTCGAGAAACCTAGTAGCACCATAGAAACTGCAGAGTGTTTCGCTCAGCACTTCCCCCGTGTAGATCAGGTCGATGAGTCACTGCAATCCCCACGGGTGACCGTGGCAGTGGCTGCGTTGGCGGCCTGCCTATGGGGCAACCCATAGGACGCTCTAAGGTGGACATGGTGTGAAGAGTCTATTGAGCTAGTTAGTAGTCCTCCGGCCCCTGAATGCGGCTAATCCTAACTGTGGAGCGCATACTCCCAAACCAGGGAGCAGTGCGTCGTAACGGGCAACTCCGCAGCGGAACCGACTACTTTGGGTGTCCGTGTTTCCTTTTATTCCTATACTGGCTGCTTATGGTGACAATTGAGAGATTGTTACCATATAGCTATTGGATTGGCCATCCAGTGTGTAATAGAGCAATCATTTACCAATTTGTTGGATTTACTCCATTAACCCACACGTCTCTCAACACACTACATTTCATCTTACTACTGAACACTAGAAA

What was measured:
splenic immune cells = test: Cre circular RNA LNPs in Cre reporter (Ai9) mice: tdTomato+ splenic immune cells; assay type: in vivo; settings: 0.5 mg/kg RNA intravenously, 48 hr, 0.5 mg/kg
Method: Circular RNAs encoding Cre recombinase (Cre) are encapsulated into lipid nanoparticles as previously described. Female, 6-8 week old B6.Cg-Gt(ROSA)26Sortm9(CAG-tdTomato)Hze/J (Ai9) mice were dosed with lipid nanoparticles at 0.5 mg/kg RNA intravenously. Fluorescent tdTomato protein was transcribed and translated in Ai9 mice upon Cre recombination, meaning circular RNAs have been delivered to and translated in tdTomato+ cells. After 48 hr, mice were euthanized and the spleens were harvested, processed into a single cell suspension, and stained with various fluorophore-conjugated antibodies for immunophenotyping via flow cytometry.
Ai9 mice (B6.Cg-Gt(ROSA)26Sortm9(CAG-tdTomato)Hze/J, female, 6-8 weeks, n=3 per group) were injected i.v. with 0.5 mg/kg Cre oRNA LNPs or PBS. Ai9 mice transcribe and translate the fluorescent reporter tdTomato upon Cre recombination; meaning cells which are tdTomato+ have successfully been transfected with Cre oRNA.

HEK293 cells = assay type: cell-based, human; settings: luminescence from secreted Gluc in supernatant 24 hours after transfection of HEK293 cells; circular RNA encoding Gluc with the named IRES (UTR truncated to 675 nt)

Row | Molecule | proportion of splenic immune cells expressing tdTomato (transfection) (splenic immune cells) | Expression (HEK293 cells)
1 | CCCCCCCCC(CCCCCC)C(=O)OCCCCCCN(CCCCCCOC(=O)C(CCCCCC)CCCCCCCC)CCCn1ccnc1 (stereo not shown) [Lipid 26 from Table 10a] | significantly higher myeloid and T cell transfection compared with Lipid 93-S14; also recorded: effective at delivering circular RNAs to many splenic immune cell subsets in mice | –
2 | B1 | – | 1.61E+08
3 | B2 | – | 1.01E+05
4 | B3 | – | 1.50E+08
